The text below walks through data of article PMC11297322, “MEILB2-BRME1 forms a V-shaped DNA clamp upon BRCA2-binding in meiotic recombination” (Nature Communications, 2023).

Data set [1] deals with T1, BRCA2MBD;MEILB2 K26E;BRME1MBD K26E (Mus musculus;Mus musculus;Mus musculus) (UniProt P97929+Q9D4G2+Q6DIA7).
T1 sequence 1: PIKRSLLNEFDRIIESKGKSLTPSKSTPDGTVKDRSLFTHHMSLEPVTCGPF
T1 sequence 2: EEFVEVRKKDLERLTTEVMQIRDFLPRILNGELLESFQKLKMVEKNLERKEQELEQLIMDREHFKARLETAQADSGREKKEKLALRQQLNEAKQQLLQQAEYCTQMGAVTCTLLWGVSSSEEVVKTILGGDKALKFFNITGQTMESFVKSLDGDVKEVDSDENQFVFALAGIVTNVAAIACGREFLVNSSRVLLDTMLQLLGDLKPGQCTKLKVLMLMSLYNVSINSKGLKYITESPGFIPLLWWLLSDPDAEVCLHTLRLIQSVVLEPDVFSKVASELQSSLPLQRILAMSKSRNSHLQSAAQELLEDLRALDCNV
T1 sequence 3: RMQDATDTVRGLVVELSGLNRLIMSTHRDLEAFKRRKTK
The data set can be described thus: EMSA. Conditions: EMSA: 20 mM HEPES pH 7.5, 325 mM KCl, 60 min room temperature; 0.4% agarose, 0.5x TBE pH 8.0, 4 C; 50 uM DNA per bp/base (qualitative). Pulldown: 20 mM HEPES …. A general note: In EMSA bound probe runs differently from free probe, usually more slowly.

The target in data set [2] is T2, BRCA2MBD;MEILB2 (22-338);BRME1MBD (Mus musculus;Mus musculus;Mus musculus) (UniProt P97929+Q9D4G2+Q6DIA7).
T2 sequence 1: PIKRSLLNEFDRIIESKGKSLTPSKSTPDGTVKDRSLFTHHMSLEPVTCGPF
T2 sequence 2: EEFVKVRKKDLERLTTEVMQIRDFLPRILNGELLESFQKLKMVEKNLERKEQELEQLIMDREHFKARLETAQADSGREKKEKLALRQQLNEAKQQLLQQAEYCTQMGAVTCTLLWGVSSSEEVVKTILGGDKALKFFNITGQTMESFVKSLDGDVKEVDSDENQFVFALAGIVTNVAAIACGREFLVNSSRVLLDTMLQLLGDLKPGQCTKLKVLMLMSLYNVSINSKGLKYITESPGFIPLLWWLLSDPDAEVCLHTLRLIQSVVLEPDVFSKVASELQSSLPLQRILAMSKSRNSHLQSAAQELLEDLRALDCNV
T2 sequence 3: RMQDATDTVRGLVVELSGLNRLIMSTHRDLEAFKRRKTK
Put plainly: EMSA. Particulars: EMSA: 20 mM HEPES pH 7.5, 325 mM KCl, 60 min room temperature; 0.4% agarose, 0.5x TBE pH 8.0, 4 C; 50 uM DNA per bp/base (qualitative). Pulldown: 20 mM HEPES ….

The target of data set [3] is T3, BRCA2MBD;MEILB2 (22-338);BRME1MBD (Mus musculus;Mus musculus;Mus musculus, UniProt P97929;Q9D4G2;Q6DIA7 2232-2283;22-338;540-578, ||).
T3 sequence 1: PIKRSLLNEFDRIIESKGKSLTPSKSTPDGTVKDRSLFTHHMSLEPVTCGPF
T3 sequence 2: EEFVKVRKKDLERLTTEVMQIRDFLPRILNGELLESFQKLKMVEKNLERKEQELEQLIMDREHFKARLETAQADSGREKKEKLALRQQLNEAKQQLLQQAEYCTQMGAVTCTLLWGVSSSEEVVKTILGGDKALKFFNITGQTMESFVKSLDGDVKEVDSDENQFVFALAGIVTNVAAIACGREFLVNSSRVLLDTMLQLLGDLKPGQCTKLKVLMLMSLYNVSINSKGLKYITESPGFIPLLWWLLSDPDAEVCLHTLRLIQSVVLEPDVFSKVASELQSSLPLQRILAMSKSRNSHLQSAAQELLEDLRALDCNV
T3 sequence 3: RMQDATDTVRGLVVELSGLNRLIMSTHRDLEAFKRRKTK
The data set can be described thus: EMSA; apparent Kd, Hill n = 4; 2:4:4 complex; 50 nM DNA; EMSA: 20 mM HEPES pH 7.5, 325 mM KCl, 60 min room temperature; 0.4% agarose, 0.5x TBE pH 8.0, 4 C; 50 uM DNA per bp/base (qualitative). Pulldown: 20 mM HEPES pH 7.5, 150 mM KCl, 10% glycerol, room temperature. Conditions: protein: recombinant;recombinant;recombinant, tags: MBP tag, TEV-cleaved;His6-MBP tag, chain copies: 2;4;4, label: FAM, blunt.

Data set [4] has as its target T4, MEILB2 (22-338);BRME1MBD (Mus musculus;Mus musculus, UniProt Q9D4G2;Q6DIA7 22-338;540-578, |).
T4 sequence 1: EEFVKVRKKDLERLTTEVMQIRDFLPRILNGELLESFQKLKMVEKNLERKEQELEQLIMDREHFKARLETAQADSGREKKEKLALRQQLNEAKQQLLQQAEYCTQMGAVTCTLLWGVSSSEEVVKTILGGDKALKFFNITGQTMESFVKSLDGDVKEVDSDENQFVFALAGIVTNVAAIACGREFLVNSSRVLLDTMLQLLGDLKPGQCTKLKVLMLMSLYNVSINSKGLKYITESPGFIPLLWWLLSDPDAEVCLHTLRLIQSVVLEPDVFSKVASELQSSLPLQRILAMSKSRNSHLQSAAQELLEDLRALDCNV
T4 sequence 2: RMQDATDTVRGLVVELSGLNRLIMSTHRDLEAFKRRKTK
Put plainly: EMSA; apparent Kd, Hill n = 3; 2:2 complex concentration; 50 nM DNA; EMSA: 20 mM HEPES pH 7.5, 325 mM KCl, 60 min room temperature; 0.4% agarose, 0.5x TBE pH 8.0, 4 C; 50 uM DNA per bp/base (qualitative). Pulldown: 20 mM HEPES pH 7.5, 150 mM KCl, 10% glycerol, room temperature. Conditions: protein: recombinant;recombinant, tags: His6-MBP tag, TEV-cleaved;His6 tag, chain copies: 2;2, label: FAM, blunt.

The target of data set [5] is T5, BRCA2MBD;MEILB2 K26E;BRME1MBD (Mus musculus;Mus musculus;Mus musculus, UniProt P97929;Q9D4G2;Q6DIA7 2232-2283;22-338;540-578, |K26E|).
T5 sequence 1: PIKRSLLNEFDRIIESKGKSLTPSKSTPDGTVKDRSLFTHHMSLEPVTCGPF
T5 sequence 2: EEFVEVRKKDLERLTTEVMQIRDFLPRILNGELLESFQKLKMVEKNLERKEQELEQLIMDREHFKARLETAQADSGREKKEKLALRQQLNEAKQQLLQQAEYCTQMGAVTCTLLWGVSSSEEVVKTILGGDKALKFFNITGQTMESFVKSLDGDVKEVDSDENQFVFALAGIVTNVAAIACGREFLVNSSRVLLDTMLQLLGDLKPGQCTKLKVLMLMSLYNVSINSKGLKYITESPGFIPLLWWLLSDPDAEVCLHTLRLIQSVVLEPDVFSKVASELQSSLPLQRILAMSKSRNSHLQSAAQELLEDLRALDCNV
T5 sequence 3: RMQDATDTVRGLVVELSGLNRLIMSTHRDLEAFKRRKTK
The data set can be described thus: EMSA; EMSA: 20 mM HEPES pH 7.5, 325 mM KCl, 60 min room temperature; 0.4% agarose, 0.5x TBE pH 8.0, 4 C; 50 uM DNA per bp/base (qualitative). Pulldown: 20 mM HEPES pH 7.5, 150 mM KCl, 10% glycerol, room temperature. Conditions: protein: recombinant;recombinant;recombinant, tags: MBP tag, TEV-cleaved;His6-MBP tag, chain copies: 2;4;4, blunt.

Data set [6] deals with T6, MEILB2 (22-338);BRME1MBD R540E R549E (Mus musculus;Mus musculus, UniProt Q9D4G2;Q6DIA7 22-338;540-578, |R540E;R549E).
T6 sequence 1: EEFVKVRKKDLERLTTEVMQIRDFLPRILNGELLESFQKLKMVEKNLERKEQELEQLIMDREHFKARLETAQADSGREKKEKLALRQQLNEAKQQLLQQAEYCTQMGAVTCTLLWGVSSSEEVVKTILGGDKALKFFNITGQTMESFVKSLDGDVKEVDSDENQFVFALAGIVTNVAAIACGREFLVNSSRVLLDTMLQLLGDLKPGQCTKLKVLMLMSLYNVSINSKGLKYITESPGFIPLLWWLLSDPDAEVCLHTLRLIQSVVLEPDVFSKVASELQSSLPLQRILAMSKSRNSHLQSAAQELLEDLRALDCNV
T6 sequence 2: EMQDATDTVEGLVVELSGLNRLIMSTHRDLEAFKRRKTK
The data set can be described thus: pull-down; 150 mM KCl; EMSA: 20 mM HEPES pH 7.5, 325 mM KCl, 60 min room temperature; 0.4% agarose, 0.5x TBE pH 8.0, 4 C; 50 uM DNA per bp/base (qualitative). Pulldown: 20 mM HEPES pH 7.5, 150 mM KCl, 10% glycerol, room temperature. Conditions: protein: recombinant;recombinant, tags: His6-MBP tag, TEV-cleaved;His6 tag, chain copies: 2;2, blunt.

Data set [7] addresses T4, MEILB2 (22-338);BRME1MBD. Put plainly: EMSA; EMSA: 20 mM HEPES pH 7.5, 325 mM KCl, 60 min room temperature; 0.4% agarose, 0.5x TBE pH 8.0, 4 C; 50 uM DNA per bp/base (qualitative). Pulldown: 20 mM HEPES pH 7.5, 150 mM KCl, 10% glycerol, room temperature. Conditions: protein: recombinant;recombinant, tags: His6-MBP tag, TEV-cleaved;His6 tag, chain copies: 2;2, hairpin with 3' poly(dT) overhang.

Data set [8] concerns the target T3, BRCA2MBD;MEILB2 (22-338);BRME1MBD. The data set is described as above. Particulars: protein: recombinant;recombinant;recombinant, tags: MBP tag, TEV-cleaved;His6-MBP tag.
In data set [9] the target is T4, MEILB2 (22-338);BRME1MBD. Put plainly: EMSA; apparent Kd, Hill n = 2; 2:2 complex concentration; 100 nM DNA; EMSA: 20 mM HEPES pH 7.5, 325 mM KCl, 60 min room temperature; 0.4% agarose, 0.5x TBE pH 8.0, 4 C; 50 uM DNA per bp/base (qualitative). Pulldown: 20 mM HEPES pH 7.5, 150 mM KCl, 10% glycerol, room temperature. Particulars: protein: recombinant;recombinant, tags: His6-MBP tag, TEV-cleaved;His6 tag, chain copies: 2;2, label: 5'-FAM.

Turning to “ATGGAATCTAAAGAAGAATTTGTTAAAGTCAGAAAGAAGGACCTGGAACGGCTGACGACGGAAGTGATGCAAATACGGGACTTCTTACCCAGAATACTAAATGGGGAGTTACTGGAAAGTTTCCAGAAATTAAAGATGGTAGAAAAAAACCTGGAAAGAAAAGAACAAGAATTAGAGCAACTGATAATGGACCGTGAACACTTCAAAGCCCGGCTAGAAACTGCACAGGCAGACAGTGGGAGGGAGAAGAAGGAGAAGTTGGCTCTTCGACAGCAGCTGAATGAGGCAAAACAGCAGCTC (double strand) [FAM-300 bp dsDNA]”, the Kd was 300 nM in [1] and 310 nM in [2].

B1: FAM-75 bp dsDNA (dsDNA)
DNA 1: ATGGAATCTAAAGAAGAATTTGTTAAAGTCAGAAAGAAGGACCTGGAACGGCTGACGACGGAAGTGATGCAAATA
DNA 2: TATTTGCATCACTTCCGTCGTCAGCCGTTCCAGGTCCTTCTTTCTGACTTTAACAAATTCTTCTTTAGATTCCAT
As for B1, the Kd is 400 ± 40 nM in data set [3] and 520 ± 60 nM with MEILB2 (22-338);BRME1MBD [4].

B2: 75 bp dsDNA (dsDNA)
DNA 1: ATGGAATCTAAAGAAGAATTTGTTAAAGTCAGAAAGAAGGACCTGGAACGGCTGACGACGGAAGTGATGCAAATA
DNA 2: TATTTGCATCACTTCCGTCGTCAGCCGTTCCAGGTCCTTCTTTCTGACTTTAACAAATTCTTCTTTAGATTCCAT
Regarding B2, the binding result in data set [5] was “no binding”.

B3: biotin-75 bp dsDNA (dsDNA)
DNA 1: ATGGAATCTAAAGAAGAATTTGTTAAAGTCAGAAAGAAGGACCTGGAACGGCTGACGACGGAAGTGATGCAAATA
DNA 2: TATTTGCATCACTTCCGTCGTCAGCCGTTCCAGGTCCTTCTTTCTGACTTTAACAAATTCTTCTTTAGATTCCAT
Consider B3, for which the binding result in data set [6] is listed as “no binding”.

B4: ssDNA-dsDNA junction (5' hairpin-poly(dT) 3') (structured_DNA)
DNA: CCGGCCCGCGGTGTCCGCGGGCCGGTTTTTTTTTTTTTTTTTTTTTTTTTTTTTTTTTTTTTTTTTTTTTTTTTT
In the case of B4, the binding result with MEILB2 (22-338);BRME1MBD [7] is “binds”; in data set [8] (chain copies: 2;4;4, hairpin with 3' poly(dT) overhang), “binds”.

B5: 75 base FAM-poly(dT) (ssDNA)
DNA: TTTTTTTTTTTTTTTTTTTTTTTTTTTTTTTTTTTTTTTTTTTTTTTTTTTTTTTTTTTTTTTTTTTTTTTTTTT
Consider B5, for which the binding result in data set [8] (chain copies: 2;4;4, label: 5'-FAM) is “binds”. Moreover, in the data set with MEILB2 (22-338);BRME1MBD [9], the Kd is 870 ± 70 nM.
